Columns and labels:
[1] = target: T1, Recombinant human NRG1-β ECD domain (R&D Systems, cat#377-HB/CF) (human, UniProt Q02297-11 121-191, limits assumed); test: competition ELISA on NRG1β; self-competition, signal read: 538.24.71
T1 construct: also called NRG1-beta; HRG1β
T1 sequence: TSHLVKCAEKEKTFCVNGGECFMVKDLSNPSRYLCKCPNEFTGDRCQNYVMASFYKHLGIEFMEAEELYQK

[2] = target: T2, Recombinant human Neuregulin 1-beta (rhNRG1b, Genentech) (human, UniProt Q02297 1-640); test: cell-based or functional assay
T2 sequence: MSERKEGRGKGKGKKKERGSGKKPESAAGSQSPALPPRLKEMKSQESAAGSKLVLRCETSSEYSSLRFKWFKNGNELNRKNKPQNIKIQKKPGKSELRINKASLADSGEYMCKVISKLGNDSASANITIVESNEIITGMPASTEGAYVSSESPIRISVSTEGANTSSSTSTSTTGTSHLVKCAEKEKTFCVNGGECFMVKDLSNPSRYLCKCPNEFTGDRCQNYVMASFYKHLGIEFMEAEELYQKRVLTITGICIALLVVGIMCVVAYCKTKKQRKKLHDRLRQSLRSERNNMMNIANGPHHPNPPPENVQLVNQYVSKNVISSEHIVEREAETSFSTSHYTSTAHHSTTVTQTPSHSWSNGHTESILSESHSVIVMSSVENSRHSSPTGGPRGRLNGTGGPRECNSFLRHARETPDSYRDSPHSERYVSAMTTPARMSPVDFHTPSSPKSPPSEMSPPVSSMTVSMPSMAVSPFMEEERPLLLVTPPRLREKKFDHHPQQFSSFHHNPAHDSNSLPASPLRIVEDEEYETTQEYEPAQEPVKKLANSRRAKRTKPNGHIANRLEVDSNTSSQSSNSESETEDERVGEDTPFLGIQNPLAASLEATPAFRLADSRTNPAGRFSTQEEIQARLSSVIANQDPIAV

[3] = target: T3, Recombinant human NRG1-α EGF domain (R&D Systems, cat#296-HR/CF) (human, UniProt Q02297 177-241); test: cell-based or functional assay
T3 sequence: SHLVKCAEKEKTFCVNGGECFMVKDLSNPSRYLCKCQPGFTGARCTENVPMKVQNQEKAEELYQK

[4] = target: HB-EGF (UniProt Q99075 63-148, limits assumed); test: ELISA
HB-EGF, sequence (Q99075 63-148 limits assumed): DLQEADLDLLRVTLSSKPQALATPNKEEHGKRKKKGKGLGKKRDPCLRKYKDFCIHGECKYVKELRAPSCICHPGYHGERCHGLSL

[5] = target: EGF (UniProt P01133 971-1023); test: ELISA
EGF, sequence (P01133 971-1023 limits assumed): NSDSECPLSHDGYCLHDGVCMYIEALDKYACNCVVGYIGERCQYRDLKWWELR

[6] = target: T4, Betacellulin (BTC) (UniProt P35070 32-111); test: ELISA
T4 sequence (looked up): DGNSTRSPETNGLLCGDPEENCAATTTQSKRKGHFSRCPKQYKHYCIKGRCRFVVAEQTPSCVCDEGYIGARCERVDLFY

[7] = target: T1, Recombinant human NRG1-β ECD domain …; test: SPR (BIAcore T100), IgG captured by anti-human Fc, NRG1β injected; sensorgram shown for 6.25 nM (sheet: '6.25 mnM NRG beta')
Procedure: (§1) Binding affinities of anti-NRG1 IgGs were measured by Surface Plasmon Resonance (SRP) using a BIAcore™-T100 instrument. Anti-NRG1 human IgGs were captured by mouse anti-human Fc antibody (GE Healthcare, cat# BR-1008-39) coated on CM5 biosensor chips to achieve approximately 1000 response units (RU). […] Association rates (kₒₙ) and dissociation rates (koff) were calculated using a simple one-to-one Langmuir binding model (BIAcore Evaluation Software version 3.2). The equilibrium dissociation constant (KD) was calculated as the ratio koff/kₒₙ.

[8] = target: T3, Recombinant human NRG1-α EGF domain …; test: SPR (BIAcore T100), IgG captured by anti-human Fc, NRG1α injected; table under the head '250 nM NRG1-alpha'
Procedure: as §1

[9] = target: T3, Recombinant human NRG1-α EGF domain …; test: SPR (BIAcore T100), IgG captured by anti-human Fc, NRG1α injected; sensorgram shown for 6.25 nM (sheet: '6.25 mnM NRG alpha')
Procedure: as §1

[10] = target: T3, Recombinant human NRG1-α EGF domain …; test: competition ELISA on NRG1α; self-competition, signal read: 538.24.71
[11] = target: T1, Recombinant human NRG1-β ECD domain …; test: competition ELISA on NRG1β; competitor whose signal is read: 526.02
[12] = target: T3, Recombinant human NRG1-α EGF domain …; test: competition ELISA on NRG1α; competitor whose signal is read: 526.02
[13] = target: T1, Recombinant human NRG1-β ECD domain …; test: competition ELISA on NRG1β; competitor whose signal is read: 526.90
[14] = target: T1, Recombinant human NRG1-β ECD domain …; test: SPR (BIAcore T100), IgG captured by anti-human Fc; table under the head '125nM NRG-beta'; this table is identical to that of FIG. 9 (NRG1-alpha) and does not fit the slow dissociation of the sensorgrams above it
[15] = target: T3, Recombinant human NRG1-α EGF domain …; test: competition ELISA on NRG1α; competitor whose signal is read: 526.90
[16] = target: T5, NRG1β (Homo sapiens, UniProt Q02297); test: Inhibition of 125I-HRG (NRG1β) binding to HER3-ECD-Fc; settings: affinity matured clones of 538.24, FIG. 7
T5 sequence (Q02297 177-244 isoform Q02297-6 limits assumed): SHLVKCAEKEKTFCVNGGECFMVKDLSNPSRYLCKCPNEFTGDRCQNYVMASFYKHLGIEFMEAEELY
Procedure: The antibodies were tested for their ability to inhibit NRG1β binding to HER3-Fc. 125I-HRG was generated at Genentech as described previously (Sliwkowski et al JBC 1994). Binding assays were performed in Nunc break-apart strip wells (Thermo-Fisher Scientific, Rochester, N.Y.). Plates were coated at 4° C. overnight with 250 ng/well of HER3-ECD-Fc fusion protein in carbonate buffer (pH 9.6). Plates were rinsed twice with wash buffer (PBS/0.05% Tween 20) and blocked with 100 μL PBS including 1% bovine serum albumin (BSA) for 30 minutes. Increasing concentrations of anti-NRG1 antibodies in RPMI 1640 medium (Invitrogen; Carlsbad, Calif.) with 0.2% BSA were pre-bound to HER3-ECD-Fc. 125I-HRG (specific activity: 266 mCi/mg, 75,000 cpm/well) was added immediately after in a total assay volume of 130 μL. Plates were incubated for 2 hours at room temperature, rinsed twice, and individual wells were counted using a 100 Series Iso Data γ-counter. Samples were assayed in triplicates. Plotting was performed using KaleidaGraph 3.6 software. […]
The affinity matured variants were tested for their ability to block HRGβ binding to HER3-Fc. […] Plates were incubated for 2 hours at room temperature, rinsed twice, and individual wells were counted using a 100 Series Iso Data γ-counter. […]

[17] = target: T3, Recombinant human NRG1-α EGF domain …; test: SPR (BIAcore T100), IgG captured by anti-human Fc, 250 nM NRG1α injected; sensorgram
Procedure: as §1

[18] = target: T3, Recombinant human NRG1-α EGF domain …; test: competition ELISA on NRG1α; signal of 526.90 against rising 538.24.71

B1: anti-NRG1 antibody 538.24.71 (antibody, human IgG1, kappa, V domains shown)
VH: EVQLVESGGGLVQPGGSLRLSCAASGFTFSGTWIHWVRQAPGKGLEWVAAITPADGSTNYADSVKGRFTISADTSKNTAYLQMNSLRAEDTAVYYCATYMFAMDYWGQGTLVTVSS
VL: DIQMTQSPSSLSASVGDRVTITCRASQDVSISLAWYQQKPGKAPKLLIYGASNLESGVPSRFSGSGSGTDFTLTISSLQPEDFATYYCQQHYTLPFTFGQGTKVEIKR
notes: also called YW538.24.71
[1]
  IC50 (read off the curve): ~7 nM
[2]
  IC50 of inhibition of Her3 activation (phosphorylation), KIRA on MCF-7 cells, 0.2 nM rhNRG1b: 0.12 nM
[3]
  IC50 of inhibition of Her3 activation (phosphorylation), KIRA on MCF-7 cells, 0.5 nM rhNRG1a: 14 nM
[4]
  binding result: no binding
[5]
  binding result: no binding
[6]
  binding result: no binding
[7]
  Kd: 1.92 pM
  koff: 1.48e-06 s⁻¹
  kon: 771000 M⁻¹ s⁻¹
[8]
  Kd: 2 nM
  koff: 0.03 s⁻¹
  kon: 1.5e+07 M⁻¹ s⁻¹
[9]
  Kd: 1.32 nM
  koff: 0.00603 s⁻¹
  kon: 4.57e+06 M⁻¹ s⁻¹
[10]
  IC50 (read off the curve): ~3 nM
[11]
  IC50 (read off the curve): ~2 nM
[12]
  IC50 (read off the curve): ~5 nM
[13]
  IC50 (read off the curve): ~8 nM
[14]
  Kd: 2 nM
  koff: 0.03 s⁻¹
  kon: 1.5e+07 M⁻¹ s⁻¹
[15]
  IC50 (read off the curve): ~4 nM

B2: 538.24.38: affinity matured variant of 538.24; VH SEQ ID NO: 21, VL SEQ ID NO: 25 (antibody, V domains shown)
VH: EVQLVESGGGLVQPGGSLRLSCAASGFTFSGTWIHWVRQAPGKGLEWVAAITPADGSTNYADSVKGRFTISADTSKNTAYLQMNSLRAEDTAVYYCATYMFAMDYWGQGTLVTVSS
VL: DIQMTQSPSSLSASVGDRVTITCRASQDVSTAVAWYQQKPGKAPKLLIYSASFLYSGVPSRFSGSGSGTDFTLTISSLQPEDFATYYCQQSYTIPMTFGQGTKVEIKR
modifications: Heavy chain variable region; Light chain variable region
[16]
  blocking of 125I-NRG1β binding to Her3: All but 538.24.38 are highly effective in blocking binding

B3: 538.24.38 (antibody, V domains shown)
VH: EVQLVESGGGLVQPGGSLRLSCAASGFTFSGTWIHWVRQAPGKGLEWVAAITPADGSTNYADSVKGRFTISADTSKNTAYLQMNSLRAEDTAVYYCATYMFAMDYWGQGTLVTVSS
VL: DIQMTQSPSSLSASVGDRVTITCRASQDVSTAVAWYQQKPGKAPKLLIYSASFLYSGVPSRFSGSGSGTDFTLTISSLQPEDFATYYCQQSYTIPMTFGQGTKVEIK
notes: also called YW538.24.38; copies: 2 + 2
[17]
  binding result: binds

B4: anti-NRG1 antibody 526.90 (antibody, human IgG1, V domains shown)
VH: EVQLVESGGGLVQPGGSLRLSCAASGFTFSGNAMSWVRQAPGKGLEWVSWIYPSGGNTYYADSVKGRFTISADTSKNTAYLQMNSLRAEDTAVYYCARSYILSYPSITWAFDYWGQGTLVTVSS
VL: DIQMTQSPSSLSASVGDRVTITCRASQSISSYLAWYQQKPGKAPKLLIYGASSRASGVPSRFSGSGSGTDFTLTISSLQPEDFATYYCQQSYSTPITFGQGTKVEIKR
notes: also called YW526.90
[18]
  binding result: binds

Reference: patent US20140363438A1, “NEUREGULIN ANTIBODIES AND USES THEREOF” (Genentech, Inc., priority 2011, published 2014)
